Measurements from article doi:10.1101/2024.05.28.596221.

Biological target: YjfP (K. pneumoniae)
Test: crystal structure

## YjfP (enzyme)
  stoichiometry N: 2
